Experimental data: US20130005646A1 (Novo Nordisk, published 2013)
Values belong to the binder of their own block, whether it stands above or below them. Starred links: 1 amine or outer side, 2 acyl side, 3 side chain; linkers in the order of their positions; H or OH if unused. Positions of bridges follow the written chain, without caps; N, C: chain ends. Groups on a side chain read outwards from the residue. No end group written: not given here. *: point of attachment. C20 diacid = O=C(O)CCCCCCCCCCCCCCCCCCC(=O)*; C18 diacid = O=C(O)CCCCCCCCCCCCCCCCC(=O)*; γGlu = O=C(O)[C@H](CCC(=O)[*:2])N[*:1]; AEEA = NCCOCCOCC(=O)O

Assays:
Experiment in all cases: cell-based or functional assay
[1] = target: T1, rat amylin 3(a) receptor (rat calcitonin(a) receptor + rat RAMP3) (rat, UniProt P32214 25-516; Q9JJ73 23-147)
T1 sequence (looked up) 1: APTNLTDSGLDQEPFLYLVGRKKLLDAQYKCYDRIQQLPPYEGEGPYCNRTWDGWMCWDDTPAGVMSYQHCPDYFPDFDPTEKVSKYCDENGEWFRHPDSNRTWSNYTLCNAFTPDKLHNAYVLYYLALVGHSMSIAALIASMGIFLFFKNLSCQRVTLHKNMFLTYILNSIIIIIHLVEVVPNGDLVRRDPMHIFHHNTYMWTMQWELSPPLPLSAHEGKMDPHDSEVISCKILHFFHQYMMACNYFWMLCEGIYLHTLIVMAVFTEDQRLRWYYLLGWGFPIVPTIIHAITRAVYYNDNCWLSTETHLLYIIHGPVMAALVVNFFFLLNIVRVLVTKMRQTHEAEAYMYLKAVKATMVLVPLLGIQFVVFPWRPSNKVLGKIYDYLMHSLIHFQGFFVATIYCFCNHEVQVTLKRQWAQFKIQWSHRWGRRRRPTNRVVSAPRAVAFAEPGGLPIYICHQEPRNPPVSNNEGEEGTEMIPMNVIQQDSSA
T1 sequence (looked up) 2: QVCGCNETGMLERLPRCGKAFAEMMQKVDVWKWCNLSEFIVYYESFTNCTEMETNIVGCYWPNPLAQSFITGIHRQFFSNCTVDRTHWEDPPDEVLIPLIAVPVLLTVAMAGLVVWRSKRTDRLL

[2] = target: T2, human calcitonin (a) receptor (human, UniProt P30988 25-474)
T2 sequence (looked up): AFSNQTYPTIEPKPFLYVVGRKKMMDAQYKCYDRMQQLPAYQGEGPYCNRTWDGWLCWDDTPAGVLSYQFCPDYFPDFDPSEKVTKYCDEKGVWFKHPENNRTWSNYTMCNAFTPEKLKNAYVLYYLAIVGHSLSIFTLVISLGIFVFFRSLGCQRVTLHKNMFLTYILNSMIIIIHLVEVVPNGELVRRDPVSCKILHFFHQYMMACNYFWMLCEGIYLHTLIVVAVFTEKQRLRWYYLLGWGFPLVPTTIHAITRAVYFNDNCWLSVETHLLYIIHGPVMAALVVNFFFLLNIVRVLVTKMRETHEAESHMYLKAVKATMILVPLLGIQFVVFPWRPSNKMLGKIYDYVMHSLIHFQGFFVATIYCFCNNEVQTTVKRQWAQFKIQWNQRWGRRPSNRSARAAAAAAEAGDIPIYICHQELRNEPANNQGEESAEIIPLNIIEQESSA

[3] = target: T3, human amylin 3(a) receptor (human calcitonin receptor + RAMP-3) (human, UniProt P30988 25-474; O60896 24-148)
T3 sequence (looked up) 1: T2 sequence (looked up)
T3 sequence (looked up) 2: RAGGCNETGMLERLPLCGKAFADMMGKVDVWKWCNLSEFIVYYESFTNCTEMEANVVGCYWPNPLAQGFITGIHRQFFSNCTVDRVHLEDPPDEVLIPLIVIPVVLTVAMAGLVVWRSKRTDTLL

[4] = target: T4, rat calcitonin (a) receptor (rat, UniProt P32214 25-516)
T4 sequence (looked up): T1 sequence (looked up) 1

- Amylin receptor rat EC50 [1]: 0.121 nM
- CTa receptor human EC50 [2]: 0.067 nM
- Amylin receptor human EC50 [3]: 0.0925 nM
- CTa receptor rat EC50 [4]: 0.109 nM
B1: N-alpha-[(S)-4-Carboxy-4-(19-carboxynonadecanoylamino)butyryl]-[His1,Glu14,His17,Pro37]-pramlintide (peptide)
peptide: {C20 diacid-γGlu}-HCNTATCATQRLAEFLHHSSNNFGPILPPTNVGSNTP-NH2
modifications: disulfide 2-7; not fully specified; printed as N-alpha-[(S)-4-Carboxy-4-(19-carboxynonadecanoylamino)butyryl]-[His1,Glu14,His17,Pro37]-pramlintide

- Amylin receptor rat EC50 [1]: 0.224 nM
- CTa receptor human EC50 [2]: 0.0855 nM
- Amylin receptor human EC50 [3]: 0.121 nM
- CTa receptor rat EC50 [4]: 1.04 nM
B2: N-alpha-[(S)-4-Carboxy-4-(19-carboxynonadecanoylamino)butyryl]-[His1,Glu14,His17,His35]-pramlintide (peptide)
peptide: {C20 diacid-γGlu}-HCNTATCATQRLAEFLHHSSNNFGPILPPTNVGSHTY-NH2
modifications: disulfide 2-7; not fully specified; printed as N-alpha-[(S)-4-Carboxy-4-(19-carboxynonadecanoylamino)butyryl]-[His1,Glu14,His17,His35]-pramlintide

- Amylin receptor rat EC50 [1]: 0.151 nM
- CTa receptor human EC50 [2]: 0.0395 nM
- Amylin receptor human EC50 [3]: 0.0255 nM
- CTa receptor rat EC50 [4]: 0.114 nM
B3: N-alpha-[(S)-4-Carboxy-4-(19-carboxynonadecanoylamino)butyryl]-Gly-[His1,Glu14,Arg17,Pro37]-pramlintide (peptide)
peptide: {C20 diacid-γGlu}-GHCNTATCATQRLAEFLRHSSNNFGPILPPTNVGSNTP-NH2
modifications: disulfide 3-8
SMILES: CC[C@H](C)[C@H](NC(=O)[C@@H]1CCCN1C(=O)CNC(=O)[C@H](Cc1ccccc1)NC(=O)[C@H](CC(N)=O)NC(=O)[C@H](CC(N)=O)NC(=O)[C@H](CO)NC(=O)[C@H](CO)NC(=O)[C@H](Cc1c[nH]cn1)NC(=O)[C@H](CCCNC(=N)N)NC(=O)[C@H](CC(C)C)NC(=O)[C@H](Cc1ccccc1)NC(=O)[C@H](CCC(=O)O)NC(=O)[C@H](C)NC(=O)[C@H](CC(C)C)NC(=O)[C@H](CCCNC(=N)N)NC(=O)[C@H](CCC(N)=O)NC(=O)[C@@H](NC(=O)[C@H](C)NC(=O)[C@@H]1CSSC[C@H](NC(=O)[C@H](Cc2c[nH]cn2)NC(=O)CNC(=O)CC[C@H](NC(=O)CCCCCCCCCCCCCCCCCCC(=O)O)C(=O)O)C(=O)N[C@@H](CC(N)=O)C(=O)N[C@@H]([C@@H](C)O)C(=O)N[C@@H](C)C(=O)N[C@@H]([C@@H](C)O)C(=O)N1)[C@@H](C)O)C(=O)N[C@@H](CC(C)C)C(=O)N1CCC[C@H]1C(=O)N1CCC[C@H]1C(=O)N[C@H](C(=O)N[C@@H](CC(N)=O)C(=O)N[C@H](C(=O)NCC(=O)N[C@@H](CO)C(=O)N[C@@H](CC(N)=O)C(=O)N[C@H](C(=O)N1CCC[C@H]1C(N)=O)[C@@H](C)O)C(C)C)[C@@H](C)O

- Amylin receptor rat EC50 [1]: 0.3 nM
- CTa receptor human EC50 [2]: 0.055 nM
- Amylin receptor human EC50 [3]: 0.036 nM
- CTa receptor rat EC50 [4]: 0.37 nM
B4: N-alpha-[(S)-4-Carboxy-4-(19-carboxynonadecanoylamino)butyryl]-[Gly1,Glu14,Arg17,Pro37]-pramlintide (peptide)
peptide: {C20 diacid-γGlu}-GCNTATCATQRLAEFLRHSSNNFGPILPPTNVGSNTP-NH2
modifications: disulfide 2-7
SMILES: CC[C@H](C)[C@H](NC(=O)[C@@H]1CCCN1C(=O)CNC(=O)[C@H](Cc1ccccc1)NC(=O)[C@H](CC(N)=O)NC(=O)[C@H](CC(N)=O)NC(=O)[C@H](CO)NC(=O)[C@H](CO)NC(=O)[C@H](Cc1c[nH]cn1)NC(=O)[C@H](CCCNC(=N)N)NC(=O)[C@H](CC(C)C)NC(=O)[C@H](Cc1ccccc1)NC(=O)[C@H](CCC(=O)O)NC(=O)[C@H](C)NC(=O)[C@H](CC(C)C)NC(=O)[C@H](CCCNC(=N)N)NC(=O)[C@H](CCC(N)=O)NC(=O)[C@@H](NC(=O)[C@H](C)NC(=O)[C@@H]1CSSC[C@H](NC(=O)CNC(=O)CC[C@H](NC(=O)CCCCCCCCCCCCCCCCCCC(=O)O)C(=O)O)C(=O)N[C@@H](CC(N)=O)C(=O)N[C@@H]([C@@H](C)O)C(=O)N[C@@H](C)C(=O)N[C@@H]([C@@H](C)O)C(=O)N1)[C@@H](C)O)C(=O)N[C@@H](CC(C)C)C(=O)N1CCC[C@H]1C(=O)N1CCC[C@H]1C(=O)N[C@H](C(=O)N[C@@H](CC(N)=O)C(=O)N[C@H](C(=O)NCC(=O)N[C@@H](CO)C(=O)N[C@@H](CC(N)=O)C(=O)N[C@H](C(=O)N1CCC[C@H]1C(N)=O)[C@@H](C)O)C(C)C)[C@@H](C)O

- Amylin receptor rat EC50 [1]: 0.504 nM
- CTa receptor human EC50 [2]: 0.216 nM
- Amylin receptor human EC50 [3]: 0.184 nM
- CTa receptor rat EC50 [4]: 2.06 nM
B5: N-epsilon21-[2-(2-{2-[2-(2-{2-[(S)-4-Carboxy-4-(17-carboxyheptadecanoylamino)butyrylamino]ethoxy}ethoxy)acetylamino]ethoxy}ethoxy)acetyl]-[Glu14,His17,Lys21,Glu … (peptide)
peptide: KCNTATCATQRLAEFLHHSSK([AEEA-AEEA-γGlu-C18 diacid])NFGPILPPTNVGSETY-NH2
modifications: disulfide 2-7; N-terminus assumed
SMILES: CC[C@H](C)[C@H](NC(=O)[C@@H]1CCCN1C(=O)CNC(=O)[C@H](Cc1ccccc1)NC(=O)[C@H](CC(N)=O)NC(=O)[C@H](CCCCNC(=O)COCCOCCNC(=O)COCCOCCNC(=O)CC[C@H](NC(=O)CCCCCCCCCCCCCCCCC(=O)O)C(=O)O)NC(=O)[C@H](CO)NC(=O)[C@H](CO)NC(=O)[C@H](Cc1c[nH]cn1)NC(=O)[C@H](Cc1c[nH]cn1)NC(=O)[C@H](CC(C)C)NC(=O)[C@H](Cc1ccccc1)NC(=O)[C@H](CCC(=O)O)NC(=O)[C@H](C)NC(=O)[C@H](CC(C)C)NC(=O)[C@H](CCCNC(=N)N)NC(=O)[C@H](CCC(N)=O)NC(=O)[C@@H](NC(=O)[C@H](C)NC(=O)[C@@H]1CSSC[C@H](NC(=O)[C@@H](N)CCCCN)C(=O)N[C@@H](CC(N)=O)C(=O)N[C@@H]([C@@H](C)O)C(=O)N[C@@H](C)C(=O)N[C@@H]([C@@H](C)O)C(=O)N1)[C@@H](C)O)C(=O)N[C@@H](CC(C)C)C(=O)N1CCC[C@H]1C(=O)N1CCC[C@H]1C(=O)N[C@H](C(=O)N[C@@H](CC(N)=O)C(=O)N[C@H](C(=O)NCC(=O)N[C@@H](CO)C(=O)N[C@@H](CCC(=O)O)C(=O)N[C@H](C(=O)N[C@@H](Cc1ccc(O)cc1)C(N)=O)[C@@H](C)O)C(C)C)[C@@H](C)O

- Amylin receptor rat EC50 [1]: 0.106 nM
- CTa receptor human EC50 [2]: 0.228 nM
- Amylin receptor human EC50 [3]: 0.142 nM
- CTa receptor rat EC50 [4]: 0.437 nM
B6: N-epsilon1-[(S)-4-Carboxy-4-(19-carboxynonadecanoylamino)butyryl]-[Glu14,His17,His35]-pramlintide (peptide)
peptide: K([γGlu-C20 diacid])CNTATCATQRLAEFLHHSSNNFGPILPPTNVGSHTY-NH2
modifications: disulfide 2-7; N-terminus assumed
SMILES: CC[C@H](C)[C@H](NC(=O)[C@@H]1CCCN1C(=O)CNC(=O)[C@H](Cc1ccccc1)NC(=O)[C@H](CC(N)=O)NC(=O)[C@H](CC(N)=O)NC(=O)[C@H](CO)NC(=O)[C@H](CO)NC(=O)[C@H](Cc1c[nH]cn1)NC(=O)[C@H](Cc1c[nH]cn1)NC(=O)[C@H](CC(C)C)NC(=O)[C@H](Cc1ccccc1)NC(=O)[C@H](CCC(=O)O)NC(=O)[C@H](C)NC(=O)[C@H](CC(C)C)NC(=O)[C@H](CCCNC(=N)N)NC(=O)[C@H](CCC(N)=O)NC(=O)[C@@H](NC(=O)[C@H](C)NC(=O)[C@@H]1CSSC[C@H](NC(=O)[C@@H](N)CCCCNC(=O)CC[C@H](NC(=O)CCCCCCCCCCCCCCCCCCC(=O)O)C(=O)O)C(=O)N[C@@H](CC(N)=O)C(=O)N[C@@H]([C@@H](C)O)C(=O)N[C@@H](C)C(=O)N[C@@H]([C@@H](C)O)C(=O)N1)[C@@H](C)O)C(=O)N[C@@H](CC(C)C)C(=O)N1CCC[C@H]1C(=O)N1CCC[C@H]1C(=O)N[C@H](C(=O)N[C@@H](CC(N)=O)C(=O)N[C@H](C(=O)NCC(=O)N[C@@H](CO)C(=O)N[C@@H](Cc1c[nH]cn1)C(=O)N[C@H](C(=O)N[C@@H](Cc1ccc(O)cc1)C(N)=O)[C@@H](C)O)C(C)C)[C@@H](C)O
